The target in test [1] is T1, recombinant human 2B4-Fc fusion protein (rh2B4-Fc) (human, UniProt Q9BZW8-2 22-221, limits assumed).
T1 construct: not shown: Fc
T1 sequence (looked up): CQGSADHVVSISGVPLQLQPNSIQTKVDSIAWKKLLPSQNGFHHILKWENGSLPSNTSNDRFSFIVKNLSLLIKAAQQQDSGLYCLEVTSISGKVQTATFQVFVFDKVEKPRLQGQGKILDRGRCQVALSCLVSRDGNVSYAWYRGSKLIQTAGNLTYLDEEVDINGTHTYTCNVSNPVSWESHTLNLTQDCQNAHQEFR
Put plainly: dual ELISA; coat rh2B4-Fc, hCD86-Fc-NKG2A titrated, detection HLA-E-His, Anti 6x-His-HRP. Here is the method:
(§1) (i) recombinant human 2B4-Fc fusion protein (rh2B4-Fc) was coated on plates. Increasing amounts of the hCD48-Fc-NKG2A or hCD86-Fc-NKG2A chimeric proteins were added and detected using HLA-E-His. The hCD86-Fc-NKG2A chimeric protein was used as a negative control (Negative control #1). […] (ii) recombinant human CD2-Fc fusion protein (rhCD2-Fc) was coated on plates. Increasing amounts of the hCD58-Fc-NKG2A or hCD86-Fc-NKG2A chimeric proteins were added and detected using HLA-E-His. The hCD86-Fc-NKG2A chimeric protein was used as a negative control (Negative control #2).
To understand whether the hCD48-Fc-NKG2A chimeric protein can bind simultaneously to both 2B4 and HLA-E, the following ELISA experiment was carried out. Briefly, and recombinant 2B4 (rh2B4-Fc) protein was coated on plates. Increasing amounts of the hCD48-Fc-NKG2A chimeric protein was added to the plates for capture by the recombinant human 2B4-Fc (rh2B4-Fc) protein. Further, recombinant HLA-E (HLA-E-His) protein was added to the plate for capture by hCD48-Fc-NKG2A chimeric proteins. The binding of the HLA-E-His protein was detected using an anti-His 6× HRP antibody.
On the technique in general: ELISA stands for enzyme-linked immunosorbent assay.

Test [2] deals with T2, recombinant human CD28-Fc (rhCD28-Fc) protein (human, UniProt P10747 19-152).
T2 construct: not shown: Fc
Put plainly: dual ELISA; coat rhCD28-Fc, hCD86-Fc-NKG2a titrated, detection HLA-E-His, Anti-His-6x-HRP; the signal needs both bindings. The method, then:
To understand whether the hCD86-Fc-NKG2A chimeric protein can binds simultaneously to both hCD28 and HLA-E, the following ELISA experiment was carried out. Briefly, and recombinant hCD28 (rhCD28-Fc) protein was coated on plates. Increasing amounts of the hCD86-Fc-NKG2A chimeric protein was added to the plates for capture by the rhCD28-Fc protein. Further, recombinant HLA-E (HLA-E-His) protein was added to the plate for capture by hCD86-Fc-NKG2A chimeric protein. The binding of the HLA-E-His protein was detected using an anti-His 6× HRP antibody.

For test [3], the target named is T3, recombinant human CD2-Fc fusion protein (rhCD2-Fc) (human, UniProt P06729 25-209).
T3 construct: not shown: Fc
T3 sequence (looked up): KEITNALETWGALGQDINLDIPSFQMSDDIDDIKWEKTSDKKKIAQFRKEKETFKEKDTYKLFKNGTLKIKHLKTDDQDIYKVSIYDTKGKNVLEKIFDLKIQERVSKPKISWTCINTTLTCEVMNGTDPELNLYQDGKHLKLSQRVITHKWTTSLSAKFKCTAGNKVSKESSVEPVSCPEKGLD
The experiment in a line: dual ELISA; coat rhCD2-Fc, hCD86-Fc-NKG2A titrated, detection HLA-E-His, Anti 6x-His-HRP. Here is the method:
as §1
To understand whether the hCD58-Fc-NKG2A chimeric protein can bind simultaneously to both CD2 and HLA-E, the following ELISA experiment was carried out. Briefly, and recombinant CD2 (rhCD2-Fc) protein was coated on plates. Increasing amounts of the hCD58-Fc-NKG2A chimeric protein was added to the plates for capture by the recombinant human CD2-Fc (rhCD2-Fc) protein. Further, recombinant HLA-E (HLA-E-His) protein was added to the plate for capture by hCD58-Fc-NKG2A chimeric proteins. The binding of the HLA-E-His protein was detected using an anti-His 6× HRP antibody.

For test [4], the target named is T4, anti-human IgG antibody (plate-bound).
T4 construct: also called anti-human Fc antibody
Put plainly: ELISA (single sided Fc): coat Anti-Human IgG (H+L) Jax# 109-005-088, detection HRP Goat anti-human FCgamma. The method, then: Anti-human IgG was coated on plates and increasing amounts of the indicated chimeric proteins were added to the plates. hIgG was used as a positive control, and mCD80-Fc-NKG2A was used as a negative control. The binding was detected using an anti-human Fcgamma HRP.
To understand whether the Fc linkers from the native chimeric proteins can be accessed by anti-human antibodies, ELISA-based assays were performed. For these assays, an anti-human IgG antibody was coated on plates and increasing amounts of the hCD86-Fc-NKG2A and hTGFBR2-Fc-NKG2A, mCD80-Fc-NKG2a chimeric proteins, and a human IgG antibody were added to the plates for capture by the plate-bound anti-human antibody. The human IgG antibody was used as a positive control and to generate a standard curve. The mCD80-Fc-NKG2a chimeric protein was included as a negative control as containing a non-human Fc domain. The protein bound to the anti-human IgG antibody was detected using an anti-human Fcgamma HRP.

For test [5], the target named is T5, recombinant human CD28-His (rhCD28-His) (human, UniProt P10747 19-152).
T5 construct: also called Human CD28-His protein; recombinant CD28 protein; not shown: His tag
The experiment in a line: ELISA: coat rhCD28-His (Acro), detection Anti-hFc-HRP. Here is the method:
To understand whether the CD80 and CD86 parts of the hCD80-Fc-NKG2A and hCD86-Fc-NKG2A chimeric protein can bind CD28, ELISA-based assays were performed. Briefly, recombinant CD28 protein was coated on plates and increasing amounts of the hCD80-Fc-NKG2A, hCD86-Fc-NKG2A, and mCD48-Fc-NKG2A chimeric proteins, and recombinant human CD86-Fc (rhCD86-Fc) protein was added to the plates for capture by the plate-bound recombinant CD28 protein. The mCD48-Fc-NKG2A chimeric protein, and recombinant human CDrhCD86-Fc protein was used as negative and positive controls, respectively. The chimeric proteins bound to the recombinant CD28 protein was detected using an anti-human Fc HRP.

Test [6] deals with T6, hCD28 expressed on CHO-K1/hCD28 cells (human, UniProt P10747 19-220).
T6 construct: whole, on cells; also called CHO-K1/CD28
The experiment in a line: flow cytometry on CHO-K1/hCD28 cells (hCD28-C1), APC-A, dose series (doses not given). The method, then: To determine whether the hCD86-Fc-NKG2A chimeric protein can specifically bind the CHO-K1/hCD28 cells, a flow-cytometry-based assay was carried out. […] The dose dependent shifts in the flow cytometry profiles illustrate a dose-dependent binding of the hCD86-Fc-NKG2A chimeric protein to hCD28 expressed by the CHO-K1/hCD28 cells. A quantitation of binding confirmed a dose-dependent binding (FIG. 65).

The target in test [7] is T7, PD-L1, plate-bound (Example 8) (Homo sapiens (Human), UniProt Q9NZQ7 19-238).
T7 construct: not shown: The Fc carrier of the vendor's hPD-L1-Fc (R&D) and any linker
The experiment in a line: Dual ELISA (capturing with PDL1): coat hPDL1-Fc (R&D), detect hHLA-E (Novus), HRP Anti-6X His; curve low, about 0.45 at the highest concentration.

Another test deals with T8, goat anti-mCD48 antibody.
T8 construct: also called anti-CD48; Anti-CD48
The experiment in a line: Dual binding ELISA: coat mHLA-E (Novus) as printed, detect Anti-mCD48 (R&D), HRP Anti-Goat HRP; flat curve.

In test [8] the target is T9, recombinant mCD47 (mCD47-His) protein (mouse, UniProt Q61735 19-140, limits assumed).
T9 construct: not shown: His tag
T9 sequence (looked up): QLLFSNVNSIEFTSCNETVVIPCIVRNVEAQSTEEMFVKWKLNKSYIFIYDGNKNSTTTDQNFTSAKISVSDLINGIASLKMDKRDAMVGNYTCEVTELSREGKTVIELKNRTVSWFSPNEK
The experiment in a line: dual/PK ELISA; coat αNKG2a (1:10k), mCD86-fc-NKG2a titrated, detection mCD47-His (5ug/ml), His-HRP. Here is the method:
Increasing amounts of the mSIRPα-Fc-NKG2A chimeric protein was added and detected using mCD47-His. The CD86-Fc-NKG2A chimeric protein was used as a negative control.
To understand whether the mSIRPα-Fc-NKG2A chimeric protein can binds simultaneously to both anti-NKG2a and CD47, the following ELISA experiment was carried out. Briefly, and anti-NKG2a antibody was coated on plates. Increasing amounts of the mSIRPα-Fc-NKG2A and mCD48-Fc-NKG2A chimeric proteins were added to the plates for capture by the anti-NKG2a antibody. Further, recombinant mCD47 (mCD47-His) protein was added to the plate for capture by mSIRPα-Fc-NKG2A chimeric protein. The binding of the mCD47-His protein was detected using an anti-His HRP antibody.

Test [9] deals with T10, HLA class I histocompatibility antigen, alpha chain E (HLA-E), plate-bound recombinant protein (human, UniProt P13747 22-305, limits assumed).
T10 construct: no tag named there; also called recombinant HLA-E protein
The experiment in a line: ELISA (single-sided): coat hHLA-E (Novus), detect Anti-mFc-HRP (Jax).

The target in test [10] is T11, mCTLA-4, plate-bound (mouse, UniProt P09793 36-162, limits assumed). The experiment in a line: ELISA (single-sided): coat mCTLA-4 (R&D), detect Anti-mFc-HRP (Jax); curve near the baseline, about 0.25 only at the highest concentration.
Test [11] concerns the target T11, mCTLA-4, plate-bound. Put plainly: ELISA (single-sided): coat mCTLA-4 (R&D), detect Anti-mFc-HRP (Jax).

“And” between values parts separate entries of the source, which are not always exact repeats. Equal values may be shown once.

T10 sequence (P13747 22-305 limits assumed): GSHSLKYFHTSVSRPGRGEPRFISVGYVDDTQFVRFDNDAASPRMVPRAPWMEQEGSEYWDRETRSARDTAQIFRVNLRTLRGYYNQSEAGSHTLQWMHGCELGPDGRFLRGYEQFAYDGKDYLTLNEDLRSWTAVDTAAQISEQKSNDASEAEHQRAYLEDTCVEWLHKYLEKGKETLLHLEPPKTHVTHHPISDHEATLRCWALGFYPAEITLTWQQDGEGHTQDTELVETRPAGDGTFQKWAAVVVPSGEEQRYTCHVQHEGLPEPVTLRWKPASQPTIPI
T6 sequence (P10747 19-220): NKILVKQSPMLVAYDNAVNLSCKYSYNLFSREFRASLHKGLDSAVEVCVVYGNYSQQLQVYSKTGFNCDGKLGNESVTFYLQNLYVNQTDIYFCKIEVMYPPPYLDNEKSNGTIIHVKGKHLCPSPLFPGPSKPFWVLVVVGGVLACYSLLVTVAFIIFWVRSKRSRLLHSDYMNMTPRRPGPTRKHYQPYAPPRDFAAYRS
T2 sequence (P10747 19-152 limits assumed): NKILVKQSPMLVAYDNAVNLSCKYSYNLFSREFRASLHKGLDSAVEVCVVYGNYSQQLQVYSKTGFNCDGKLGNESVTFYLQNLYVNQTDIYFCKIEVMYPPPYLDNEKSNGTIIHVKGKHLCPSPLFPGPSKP
T5 sequence (P10747 19-152 limits assumed): as above
T7 sequence (Q9NZQ7 19-238 limits assumed): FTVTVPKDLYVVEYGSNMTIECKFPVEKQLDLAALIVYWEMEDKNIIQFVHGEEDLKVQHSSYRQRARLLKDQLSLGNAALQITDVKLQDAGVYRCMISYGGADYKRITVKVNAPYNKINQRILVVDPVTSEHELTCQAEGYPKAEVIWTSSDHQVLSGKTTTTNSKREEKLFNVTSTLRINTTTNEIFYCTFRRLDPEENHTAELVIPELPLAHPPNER

B1: human CD86-Fc-NKG2A chimeric protein (Fc fusion)
chain: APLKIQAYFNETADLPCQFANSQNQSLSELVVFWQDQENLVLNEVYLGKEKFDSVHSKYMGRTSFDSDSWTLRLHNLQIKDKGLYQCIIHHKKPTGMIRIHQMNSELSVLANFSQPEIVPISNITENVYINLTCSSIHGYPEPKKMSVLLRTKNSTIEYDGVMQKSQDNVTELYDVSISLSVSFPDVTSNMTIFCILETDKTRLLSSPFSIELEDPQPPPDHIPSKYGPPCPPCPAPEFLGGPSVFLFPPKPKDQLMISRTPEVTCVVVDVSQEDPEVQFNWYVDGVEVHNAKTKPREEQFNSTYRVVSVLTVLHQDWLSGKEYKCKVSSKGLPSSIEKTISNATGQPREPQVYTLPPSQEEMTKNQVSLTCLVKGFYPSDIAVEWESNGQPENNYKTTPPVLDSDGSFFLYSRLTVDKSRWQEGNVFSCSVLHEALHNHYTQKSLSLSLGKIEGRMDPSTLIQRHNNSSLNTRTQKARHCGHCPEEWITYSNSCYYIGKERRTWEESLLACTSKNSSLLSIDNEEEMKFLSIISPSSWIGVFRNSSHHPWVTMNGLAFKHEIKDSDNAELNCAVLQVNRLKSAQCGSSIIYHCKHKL
notes: also called hCD86-Fc-NKG2A
The EC50 (read off the curve) is the concentration at which the effect is half-maximal. A higher EC50 (read off the curve) goes with a less potent agent. On to B1, for which the binding result in test [1] is on record as “no binding (tested: about log 2.7 ug/ml (roughly 500 ug/ml))”; in [2], “binds”; in test [3], “no binding (tested: about log 2.7 ug/ml (roughly 500 ug/ml))”; in [5], “binds”; in test [6], “binds”. The “EC50 (read off the curve)” value in test [4] was roughly 1 µg/mL.

B2: mouse CD86-Fc-NKG2A chimeric protein (Fc fusion)
chain: VSVETQAYFNGTAYLPCPFTKAQNISLSELVVFWQDQQKLVLYEHYLGTEKLDSVNAKYLGRTSFDRNNWTLRLHNVQIKDMGSYDCFIQKKPPTGSIILQQTLTELSVIANFSEPEIKLAQNVTGNSGINLTCTSKQGHPKPKKMYFLITNSTNEYGDNMQISQDNVTELFSISNSLSLSFPDGVWHMTVVCVLETESMKISSKPLNFTQEFPSPQTYWKVPRDCGCKPCICTVPEVSSVFIFPPKPKDVLTITLTPKVTCVVVDISKDDPEVQFSWFVDDVEVHTAQTQPREEQFNSTFRSVSELPIMHQDWLNGKEFKCRVNSAAFPAPIEKTISKTKGRPKAPQVYTIPPPKEQMAKDKVSLTCMITDFFPEDITVEWQWNGQPAENYKNTQPIMDTDGSYFVYSKLNVQKSNWEAGNTFTCSVLHEGLHNHHTEKSLSHSPGIIEGRMDTPYTEAKAQINSSMTRTHRDINYTLSSAQPCPHCPKEWISYSHNCYFIGMERKSWNDSLVSCISKNCSLLYIDSEEEQDFLQSLSLISWTGILRKGRGQPWVWKEDSIFKPKIAEILHDECNCAMMSASGLTADNCTTLHPYLCKCKFPI
notes: Batch 1 and Batch 2 were tested; also called mCD86-Fc-NKG2A
As a reminder, the EC50 is the midpoint of the concentration-response curve. B2: the EC50 in [7] was 1.65 µM; with goat anti-mCD48 antibody, roughly 0.00555 µM; in test [9] it was 0.0661 µM and 0.0832 µM; in the test with mCTLA-4, plate-bound [10], roughly 4050 µM; in the test with mCTLA-4, plate-bound [11], 0.000658 µM. The binding result in [8] was “no binding (tested: about log 1.8 ug/ml (roughly 60 ug/ml))”.

The record behind these values is patent US20200399344A1 (SHATTUCK LABS, published 2020).
